Assay results from patent publication US20250297032A1 (CONCEPT TO MEDICINE BIOTECH, published 2025).
Residue numbers refer to the chain shown, from its start.

Experiments:
[1] = biological target: T1, human FAPα-His tag (Sino biological) (human, UniProt Q12884 26-760); assay: competitive ELISA on coated human FAPα; biotinylated mAb alone, no competing Ab (row '0')
T1 construct: Bought protein; also called human FAPα-His protein; not shown: His tag
T1 sequence (looked up): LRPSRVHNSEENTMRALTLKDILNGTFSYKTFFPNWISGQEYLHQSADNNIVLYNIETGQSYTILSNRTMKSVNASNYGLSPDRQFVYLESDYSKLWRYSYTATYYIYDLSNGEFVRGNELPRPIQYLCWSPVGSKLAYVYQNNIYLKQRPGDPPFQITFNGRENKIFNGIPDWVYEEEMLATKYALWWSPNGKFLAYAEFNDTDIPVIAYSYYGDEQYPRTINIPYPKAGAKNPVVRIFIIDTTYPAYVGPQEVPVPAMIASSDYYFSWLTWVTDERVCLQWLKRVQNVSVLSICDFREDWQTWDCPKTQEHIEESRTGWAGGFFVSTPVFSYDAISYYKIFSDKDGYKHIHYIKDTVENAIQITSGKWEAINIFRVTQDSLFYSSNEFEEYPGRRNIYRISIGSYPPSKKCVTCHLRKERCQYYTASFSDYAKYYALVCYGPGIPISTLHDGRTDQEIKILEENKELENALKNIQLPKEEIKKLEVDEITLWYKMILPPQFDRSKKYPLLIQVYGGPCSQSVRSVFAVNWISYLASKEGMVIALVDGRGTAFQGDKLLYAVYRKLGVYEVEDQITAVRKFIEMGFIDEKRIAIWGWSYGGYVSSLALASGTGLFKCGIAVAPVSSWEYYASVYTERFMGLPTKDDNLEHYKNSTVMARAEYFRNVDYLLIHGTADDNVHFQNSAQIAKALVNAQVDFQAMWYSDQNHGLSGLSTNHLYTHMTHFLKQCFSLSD
Description: (§1) Briefly, microtiter plates were coated with human FAPα proteins at 0.5 μg/ml in PBS, 100 μl/well at 4° C. overnight, then blocked with 150 μl/well of 1% BSA. Serial dilutions of chimeric antibodies as well as biotin-conjugated reference mAb were added to each well and incubated for 1 hour at RT. The plates were washed with PBS/Tween and then incubate with streptavidin-HRP for 15 mins at RT. After washing, the plates were developed with TMB substrate and analyzed by spectrophotometer at OD 450 nm. According to the competition ability to reference mAbs (Benchmark, or “BMK”), all tested FAPα mAbs binds to the similar epitope as shown in Table 5.

[2] = biological target: T1, human FAPα-His tag (Sino biological); assay: competitive ELISA on coated human FAPα; competitor (detected): FAP-I38-Bio
Description: as §1

[3] = biological target: T1, human FAPα-His tag (Sino biological); assay: competitive ELISA on coated human FAPα; competitor (detected): FAP-I30-Bio
Description: as §1

[4] = biological target: T2, mouse FAPα-His protein (mouse, UniProt P97321 26-761, limits assumed); assay: ELISA, plate coated with mouse FAPα-His, anti-human IgG-HRP, OD 450 nm
T2 construct: not shown: His tag
T2 sequence (looked up): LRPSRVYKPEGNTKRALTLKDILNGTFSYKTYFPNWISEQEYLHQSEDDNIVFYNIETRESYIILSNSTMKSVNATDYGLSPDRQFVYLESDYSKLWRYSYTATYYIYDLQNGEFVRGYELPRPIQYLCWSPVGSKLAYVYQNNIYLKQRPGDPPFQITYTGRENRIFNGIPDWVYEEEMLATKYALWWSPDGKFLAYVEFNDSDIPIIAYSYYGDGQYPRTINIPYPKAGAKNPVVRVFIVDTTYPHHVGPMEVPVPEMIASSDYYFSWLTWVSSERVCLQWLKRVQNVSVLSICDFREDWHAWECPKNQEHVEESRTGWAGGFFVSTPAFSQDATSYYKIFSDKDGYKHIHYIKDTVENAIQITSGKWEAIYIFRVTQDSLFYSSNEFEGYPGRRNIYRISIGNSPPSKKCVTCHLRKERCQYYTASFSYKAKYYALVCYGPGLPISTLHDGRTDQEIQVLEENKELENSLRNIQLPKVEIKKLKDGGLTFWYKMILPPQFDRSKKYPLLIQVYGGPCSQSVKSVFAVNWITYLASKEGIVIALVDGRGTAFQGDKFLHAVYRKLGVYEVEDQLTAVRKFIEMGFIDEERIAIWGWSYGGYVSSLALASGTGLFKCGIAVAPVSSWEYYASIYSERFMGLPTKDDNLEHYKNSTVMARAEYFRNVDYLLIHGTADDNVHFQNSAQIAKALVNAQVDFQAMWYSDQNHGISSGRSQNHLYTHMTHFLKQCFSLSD
Description: Briefly, microtiter plates were coated with mouse FAPα-His protein at 0.5 ug/ml in PBS, 100 μl/well at 4° C. overnight, then blocked with 150 μl/well of 1% BSA. Three-fold dilutions of tested antibodies starting from 1 μg/ml were added to each well and incubated for 1 hour at 37° C. The plates were washed with PBS/Tween and then incubated with Anti-Human IgG (H&L) (GOAT) Antibody Peroxidase Conjugated for 30 mins at 37° C. After washing, the plates were developed with TMB substrate and analyzed by spectrophotometer at OD 450 nm.

[5] = biological target: T1, human FAPα-His tag (Sino biological); assay: SPR (Biacore T200), mAb captured on Protein A chip, human FAPα-His as analyte
Description: The binding of the tested antibodies to recombinant FAPα protein (human FAPα-his tag) was tested with Biacore using a capture method. The mAbs were captured using Protein A chip. A serial dilution of human FAPα-his tag protein was injected over captured antibody for 3 mins at a flow rate of 30 μl/min. The antigen was allowed to dissociate for 800s. All the experiments were carried out on a Biacore T200. Data analysis was carried out using the Biacore T200 evaluation software.

[6] = biological target: T1, human FAPα-His tag (Sino biological); assay: competitive ELISA on coated human FAPα; competitor (detected): FAP-G14-Bio
Description: Competitive ELISA was carried out to classify the FAPα mAbs based on the binding epitope to human FAPα.
as §1

[7] = biological target: T1, human FAPα-His tag (Sino biological); assay: competitive ELISA on coated human FAPα; competitor (detected): FAPα (BMK)-Bio
Description: as §1

B1: G14 (antibody, V domains shown)
VH: QVQLLESGGGVVQPGRSLRLSCAASGFTFSSYAMHWVRQAPGKGLEWVAFISHDGNRNSYADSVRGRFTISRDNSKNTLYLQMNSLRAEDTAVYYCARDLGYYNGFSYWGQGTLVTVSA
VL: DIVMTQSPSSVSASVGDRVTITCRASQGISSWLAWYQQKPGKAPKLLIYAASSLQSGVPSRFSGSGSGTDFTLTISSLQPEDFATYYCQQANSFPPTFGPGTKVDIK
notes: Full human antibody from a Fab phage library; Tested as a mAb (detected with anti-human IgG, captured on Protein A); also called FAP-G14; FAP-G14-Bio (biotin-conjugated form)
OD 450 nm [1]: 2.15 OD 450 nm | OD 450 nm [2]: 0.658 OD 450 nm | OD 450 nm [3]: 0.241 OD 450 nm | binding result [4]: no binding (tested: 1000 ng/ml) | Kd [5]: 0.522 nM | koff [5]: 6.24e-05 s⁻¹ | kon [5]: 120000 M⁻¹ s⁻¹ | OD 450 nm [6]: 0.209 OD 450 nm | OD 450 nm [7]: 0.399 OD 450 nm

B2: I30 (antibody, V domains shown)
VH: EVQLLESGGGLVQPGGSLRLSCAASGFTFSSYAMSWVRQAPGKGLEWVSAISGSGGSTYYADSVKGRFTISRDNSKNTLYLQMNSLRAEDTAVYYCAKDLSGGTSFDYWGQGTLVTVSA
VL: B1 VL with D1A, V3R, M4L, P100G, D105E
notes: Tested as a mAb; also called 130; FAP-I30
OD 450 nm [1]: 1.49 OD 450 nm | OD 450 nm [2]: 0.324 OD 450 nm | OD 450 nm [3]: 0.143 OD 450 nm | binding result [4]: no binding (tested: 1000 ng/ml) | Kd [5]: 0.454 nM | koff [5]: 6.2e-05 s⁻¹ | kon [5]: 137000 M⁻¹ s⁻¹ | OD 450 nm [6]: 0.129 OD 450 nm | OD 450 nm [7]: 0.151 OD 450 nm

B3: J40 (antibody, V domains shown)
VH: EVQLLESGGGLVQPGGSLRLSCAASGFTFSSYAMSWVRQAPGKGLEWVSAISGSGGSTYYADSVKGRFTISRDNSKNTLYLQMNSLRTDDTAVYYCARDLTTSTGWESWGQGTLVTVSA
VL: B1 VL with D1N, V3Q, P100Q, V104L, D105E
notes: Tested as a mAb; also called FAP-J40; FAP-J40-Bio (biotin-conjugated form)
OD 450 nm [1]: 1.2 OD 450 nm | OD 450 nm [2]: 0.527 OD 450 nm | OD 450 nm [3]: 0.218 OD 450 nm | binding result [4]: no binding (tested: 1000 ng/ml) | Kd [5]: 1.01 nM | koff [5]: 7.31e-05 s⁻¹ | kon [5]: 72200 M⁻¹ s⁻¹ | OD 450 nm [6]: 0.167 OD 450 nm | OD 450 nm [7]: 0.343 OD 450 nm

B4: I37 (antibody, V domains shown)
VH: QLQLVESGGGLVQPGGSLRLSCAASGFTFSSYAMSWVRQAPGKGLEWVSAISGSGGSTYYADSVKGRFTISRDNSKNTLYLQMNSLRAEDTAVYYCARDKPWGGSFDYWGQGTLVTVSA
VL: B1 VL with V3Q, M4L, V11L, P96V
notes: Tested as a mAb; also called FAP-I37
OD 450 nm [1]: 1.72 OD 450 nm | OD 450 nm [2]: 0.703 OD 450 nm | OD 450 nm [3]: 0.239 OD 450 nm | Kd [5]: 0.855 nM | koff [5]: 0.000154 s⁻¹ | kon [5]: 180000 M⁻¹ s⁻¹ | OD 450 nm [6]: 0.224 OD 450 nm | OD 450 nm [7]: 0.46 OD 450 nm
